Source: paper PMC8814693 (Computational and Structural Biotechnology Journal, 2022)

Tests used:
Details in all cases: both partners purified
[1] = target: T1, Bcl-2 (residues 1-207) (UniProt P10415 1-207); experiment: SPR; Bfk BH3 peptide amine-coupled to a CM5 chip (10 mM sodium acetate pH 5.0); Bcl-2, Bcl-XL (3.13-200 nM) and Bak (1.25-40.0 uM) injected in HBS-EP at 30 uL/min for 90 s; Biacore T200; KD by steady-state affinity analysis
T1 construct: Bcl-2, residues 1-207; Cloned in pET-28a(+) between NdeI and XhoI; buffer-exchanged to HBS-EP

[2] = target: T2, Bcl-XL (residues 1-209) (UniProt Q07817-1 1-209); experiment: as above
T2 construct: Bcl-XL, residues 1-209; Cloned in pET-28a(+) between NdeI and XhoI; buffer-exchanged to HBS-EP

[3] = target: T1, Bcl-2 (residues 1-207); experiment: SPR; Bid BH3 peptide amine-coupled to a CM5 chip (10 mM sodium acetate pH 4.0); proteins injected in HBS-EP (10 mM HEPES pH 7.5, 150 mM NaCl, 0.05 mM EDTA, 0.005% Tween 20) at 30 uL/min for 90 s; Biacore T200; affinity experiments, responses plotted against concentration
[4] = target: T2, Bcl-XL (residues 1-209); experiment: as above
[5] = target: T3, Bak (residues 23-186) (UniProt Q16611 23-186); experiment: as above
T3 construct: Bak, residues 23-186; Cloned in pET-28a(+) between NdeI and XhoI; buffer-exchanged to HBS-EP
T3 sequence (looked up): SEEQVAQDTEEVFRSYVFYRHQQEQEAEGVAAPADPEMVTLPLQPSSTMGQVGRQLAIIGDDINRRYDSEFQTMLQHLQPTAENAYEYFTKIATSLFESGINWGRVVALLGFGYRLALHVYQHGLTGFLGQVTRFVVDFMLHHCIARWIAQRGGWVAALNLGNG

T1 sequence (P10415 1-207): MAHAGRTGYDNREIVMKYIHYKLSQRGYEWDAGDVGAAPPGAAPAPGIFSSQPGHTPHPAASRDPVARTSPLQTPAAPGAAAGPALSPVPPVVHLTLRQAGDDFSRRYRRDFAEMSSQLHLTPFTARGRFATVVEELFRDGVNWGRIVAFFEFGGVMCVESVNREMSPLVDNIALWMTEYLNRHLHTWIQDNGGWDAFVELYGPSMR
T2 sequence (Q07817 1-209): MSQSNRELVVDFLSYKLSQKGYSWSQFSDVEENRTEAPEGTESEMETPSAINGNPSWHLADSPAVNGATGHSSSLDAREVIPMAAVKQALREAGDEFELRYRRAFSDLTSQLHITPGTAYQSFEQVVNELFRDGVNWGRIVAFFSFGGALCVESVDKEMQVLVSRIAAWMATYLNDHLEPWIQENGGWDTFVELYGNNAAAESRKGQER

Row | Kd [1] | Kd [2] | Kd [3] | Kd [4] | Kd [5] | Binder
1 | 17.4 nM | 36.9 nM |  |  |  | SFDVAIIAGRLRMLGDQFNGE (BH3 peptide of human Bfk (BCL2L15), residues 47-67; also called Bfk BH3 peptide; Bfk BH3; source: synthetic peptide) [synthetic BH3 peptide derived from Bfk (residues 47-67)]
2 |  |  | 44 nM | 87 nM | 37 µM | EDIIRNIARHLAQVGDSMDRS (BH3 peptide of Bid; also called Bid BH3 peptide; representative BH3 peptide; source: synthetic peptide) [synthetic BH3 peptide derived from Bid (residues 79-100)]
